Assay results taken from patent US20210024652A1.

Molecular target: plasma membrane calcium ATPase PMCA4b, P23634
Assay: cell-based or functional assay

Sequence of plasma membrane calcium ATPase PMCA4b, P23634 (P23634 whole entry): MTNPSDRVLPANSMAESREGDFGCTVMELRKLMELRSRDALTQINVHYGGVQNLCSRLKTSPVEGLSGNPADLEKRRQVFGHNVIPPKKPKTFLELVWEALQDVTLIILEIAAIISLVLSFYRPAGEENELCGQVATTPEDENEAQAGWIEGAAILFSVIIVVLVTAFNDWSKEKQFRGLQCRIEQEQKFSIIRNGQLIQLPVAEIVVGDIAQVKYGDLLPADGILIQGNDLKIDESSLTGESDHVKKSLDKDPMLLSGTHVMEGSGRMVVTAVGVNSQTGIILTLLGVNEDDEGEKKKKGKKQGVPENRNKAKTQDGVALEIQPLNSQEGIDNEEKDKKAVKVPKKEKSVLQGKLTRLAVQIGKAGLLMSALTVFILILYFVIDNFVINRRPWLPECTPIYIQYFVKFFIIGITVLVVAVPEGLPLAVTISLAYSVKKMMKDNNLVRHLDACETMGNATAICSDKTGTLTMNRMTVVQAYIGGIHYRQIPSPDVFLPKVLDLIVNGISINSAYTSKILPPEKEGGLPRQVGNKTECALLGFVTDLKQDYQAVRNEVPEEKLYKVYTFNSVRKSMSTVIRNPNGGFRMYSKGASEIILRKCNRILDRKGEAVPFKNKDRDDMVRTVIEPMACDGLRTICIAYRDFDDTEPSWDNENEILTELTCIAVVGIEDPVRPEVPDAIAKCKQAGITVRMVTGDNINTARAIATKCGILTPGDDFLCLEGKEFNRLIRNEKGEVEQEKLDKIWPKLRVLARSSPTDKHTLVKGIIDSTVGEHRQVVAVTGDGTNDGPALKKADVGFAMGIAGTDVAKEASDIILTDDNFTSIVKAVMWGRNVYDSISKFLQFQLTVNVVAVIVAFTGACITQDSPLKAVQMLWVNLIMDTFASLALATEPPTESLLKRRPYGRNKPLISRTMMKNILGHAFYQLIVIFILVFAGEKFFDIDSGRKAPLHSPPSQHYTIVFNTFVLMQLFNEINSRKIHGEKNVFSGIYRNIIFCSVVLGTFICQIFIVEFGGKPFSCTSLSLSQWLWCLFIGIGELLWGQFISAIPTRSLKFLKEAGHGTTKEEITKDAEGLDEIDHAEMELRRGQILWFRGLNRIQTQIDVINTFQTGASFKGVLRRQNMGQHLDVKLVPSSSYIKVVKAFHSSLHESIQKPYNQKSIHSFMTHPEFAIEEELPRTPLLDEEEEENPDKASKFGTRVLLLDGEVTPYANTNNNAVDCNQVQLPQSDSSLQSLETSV

CIRFVSIDNKKRNIESSEIG [RNLS peptide RP-220] was tested, and the decrease in RNLS dependent ERK phosphorylation in MiaPaCa2 cells after PMCA4b siRNA, western blot was 70%.
